Experimental data reported in the DeepSol protein solubility set.

Assay: soluble on expression in E. coli; label from the status in PepcDB or PDB records

| Sequence | soluble on expression in E. coli |
| --- | --- |
| MDKQLEAARKFLKDNVRQMVDFSQTAQNRRVPPPPIEKPMPEEAKTIPLPVIGKAKSAGNIDLWSAIGQRESCRFYADEPMSLDELSLLLWATQGVRLKLDAGHALRTVPSAGCRHAFETYLCVLNVESLDKGIYRYLPLEHALLCSHAPEKLESRIVRATLGQRFTGDAAVVFVWTAIPYRMEWRYGLAAHKVIALDAGHVCQNLYLACEAIGAGTCAIAAYDQDEMDRLLDVDGEEEFTIYLAPVGKKG | not soluble |
| MGSDKIHHHHHHMKEQNNIPTSKVERATKFVQTGAKIGGNYIKHYAKKAFNPELTKEQLHEDNSKDVYETLSQLKGSALKVAQMLSQDKNMLPQAYVDKFTMAQYSAPPLSYPLVVKTFQKYFGKSPESMFDTFERNASNAASIGQVHKATKDGKVFAVKIQYPGVAESVSSDLKLVKPFALRLMNMKEKDLDMYMDEVESKLIEETDYELELRRSNEISTQCAHITGLVFPAYYPEYSSKRILTMDWLEGLHMKEFLATNPSQEIRNQIGQLLWDFYDFQMHQLRTVHADPHPGNFLMRSNGSLGVIDFGCVKEIPEEFYTEYFKLLNKEVIEDKTELLKTFERLNFFDAEDTALQREIFFDLFCEMTHLLGLPFYSETFDFSDDSYFKRIYDFGEHISNVKEIKDARQARGSRHGIYINRTYFGLYNLLNQLGANVRTKSYGEVAIEV | not soluble |
| MGHHHHHHSHVFKIEDKIGEGTFSSVYLATAQLQVGPEEKIALKHLIPTSHPIRIAAELQCLTVAGGQDNVMGVKYCFRKNDHVVIAMPYLEHESFLDILNSLSFQEVREYMLNLFKALKRIHQFGIVHRDVKPSNFLYNRRLKKYALVDFGLAQGTHDTKIELLKFVQSEAQQERCSQNKSHIITGNKIPLSGPVPKELDQQSTTKASVKRPYTNAQIQIKQGKDGKEGSVGLSVQRSVFGERNFNIHSSISHESPAVKLMKQSKTVDVLSRKLATKKKAISTKVMNSAVMRKTASSCPASLTCDCYATDKVCSICLSRRQQVAPRAGTPGFRAPEVLTKCPNQTTAIDMWSAGVIFLSLLSGRYPFYKASDDLTALAQIMTIRGSRETIQAAKTFGKSILCSKEVPAQDLRKLCERLRGMDSSTPKLTSDIQGHASHQPAISEKTDHKASC | soluble |
| NVVLKDASELLDEVVVIGYGAVKKSDLTSSISTVKGKEITETVTGNAMDALQGKINGVQVTSGGGPGAQPKVLIRGVTTVNGTDPLYVVDGMPVGTNINFLNSNDIESMEVLKDASAAAIYGTRASNGVILITTKKGMAGK | not soluble |
| MGHHHHHHMRSYEKSKTAFKEAQKLMPGGVNSPVRAFKSVDMDPIFMERGKGSKIFDIDGNEYIDYVLSWGPLILGHTNDRVVESLKKVAEYGTSFGAPTEVENELAKLVIDRVPSVEIVRMVSSGTEATMSALRLARGYTGRNKILKFEGCYHGHGDSLLIKAGSGVATLGLPDSPGVPEGIAKNTITVPYNDLESVKLAFQQFGEDIAGVIVEPVAGNMGVVPPQEGFLQGLRDITEQYGSLLIFDEVMTGFRVDYNCAQGYFGVTPDLTCLGKVIGGGLPVGAYGGKAEIMEQIAPSGPIYQAGTLSGNPLAMTAGLETLKQLTPDSYKNFIKKGDRLEEGISKAAEAHGIPHTFNRAGSMIGFFFTNEPVINYETAKASDLKLFASYYKGMANEGVFLPPSQFEGLFLSTAHTDEDIENTIQAAEKVFAEISRR | soluble |
| SIGLTVEDLLSLRQVVSGNPEALAPLLENISARYPQLREHIMANPEVFVSMLLEA | soluble |
| MGSDKIHHHHHHMTSREDEIRDFLATHGYADWNRTPLAGDASSRRYQRLRSPTGAKAVLMDWSPEEGGDTQPFVDLAQYLRNLDISAPEIYAEEHARGLLLIEDLGDALFTEVINNDPAQEMPLYRAAVDLLIHLHDAQTPELARLDPETLSEMTRLAFSEYRYAILGDAAEDNRKRFEHRFAQILSAQLEGDMVFVHRDFHAQNLLWLPEREGLARVGVIDFQDAKLGHRAYDLVSLLQDARRDVPAQVEAQMIDHYIQATGVDESHFRSAYAVIAVQRNMRILGIFARLSQRFGKRHYIEFVPRVWAHFERGLAHPALASAAEEILNALPAPAPEVLERLRA | not soluble |
